According to US20120201826A1 (NOV IMMUNE S A, published 2012):
Numbering of substitutions follows the chain as printed.

T1: recombinant human RANTES (huRANTES, Peprotech) (human, UniProt P13501 24-91)
T1 sequence: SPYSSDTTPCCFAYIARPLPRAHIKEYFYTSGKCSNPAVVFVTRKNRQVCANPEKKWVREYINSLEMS

B1: 1D9 scFv (scFv)
chain: QVQLVQSGAEVKKPGASVKVSCKVSGYTLTEFAMHWVRQAPGKGLEWMGGFVPEDGETIYAQKFQGRVTMTEDTSTDTAYMELSSLRSEDTAVYYCATDPLYTPGLEPWGQGTTVTVSSSYVLTQPPSVSVAPGQTARITCGGNNIESKSVHWYQQKPGQAPVLVVYDDSDRPSGIPERFSGSNSGNTATLTISRVEAGDEADYYCQVWDSNTDHWVFGGGTKLTVL
B2: 6A8 scFv (scFv)
chain: B1 chain with T30N, E31D, F51Y, E57D, T103P, E107Q, L224V
B3: 4D8 scFv (scFv)
chain: B1 chain with T30N, E31D, F51Y, E57D, E107Y, P108V, L224V
B4: 1E4 scFv (scFv)
chain: B1 chain with T103E, P104G, G105S, L106F, E107S, P108V
B5: 3E7 scFv (scFv)
chain: B1 chain with T30N, E31D, F51Y, E57D, T103P, E107S, L224V
B6: 5E1 scFv (scFv)
chain: B1 chain with T30N, E31D, F51Y, E57D, P100Y, T103I, G105S, E107S, P108Y, L224V
B7: E6 scFv (scFv)
chain: QVQLVQSGAEVEKPGASVKVSCRVSGYPLTEIAIHWVRQAPGKGLEWMGSFEPEDAEAIYAQRFQGRVTMTEETSANTAYMELSSLRSEDTAVYFCATDPYYASSGSNYMEVWGRGTLVTVSSNFMLTQPHSVSESPGKTVTISCTGSGGSISSNYVQWYRQRPGSAPSTVIYEDDQRPSGVPDRISGSIDSSSNSASLTISGLTTEDEADYYCHSYDGNNRWVFGGGTKLTVL
B8: C8 scFv (scFv)
chain: QVQLVESGGGVVQPGRSLRLSCAASGFTFSSYAMHWVRQAPGKGLEWVAVISYDGSNKYYADSVKGRFTISRDNSKNTLYLQMNSLRAEDTAVYYCARETFPHYYYYYMDVWGRGTLVTVSSSYVLTQPPSVSVAPGQTARITCEGDDTDIGTVNWYQQKPGQAPVLVISEDGYRPSGIPERFSGSNSGNTATLTISRVEAGDEADYYCQFWDVDSDHPVFGGGTQLTVL
B9: D1 scFv (scFv)
chain: EVQLVQSGPEVKKPGATVKISCNVSAETFTDYYIHWVKQAPGRGLEWMGLVDSEEDGETLFAETFRGRVALTADRSTNTAYMELRSLRHDDTAVYYCAAEYGEYGFFQSWGQGTLVTVSSQSVLTQPPSVSGAPGQRVTISCTGSSSNIGADYDVNWYQQLPGTSPKLLIYGDINRPSGVPDRFSASKSGTSASLAITGLQAEDEADYYCQSFDNSLSGSVIFGGGTKLTVL
B10: CG11 scFv (scFv)
chain: QVQLVQSGTEVKKPGATVNVSCKISGHLFTDYYIHWVQQAPGKGLEWVGLIDPKDGEIQYAEKFQARVTITADTSTDTVYMELNSLRSEDTAVYYCATEVLSGIRVFPFDPWGQGTLVTVSSQSVLTQPPSVSGAPGQRVTISCTGSSSNIGAGYDVYWYQQFPGKAPKLLIYDTNNRPPGVPDRFSGSKSGTSASLAISGLQTEDEADYYCQSYDIALSNSNVVFGGGTKLTVL
B11: H11 scFv (scFv)
chain: QVQLVQSGAEVKKPGSSVKVSCKASGGISDNYALSWVRQAPGQGLEWMGGFIPLVDTTNYAQRFQGRLTITADDSMSTVYMELRSLRSDDTAMYYCAREQVAVGPGPTSDRGPDGLDVWGQGTMVTVSSQSVLTQPSSVSGAPGHRVTISCTGSNSNLGADYDVHWYQQLPGSAPKLLIYDNNIRPSGVPARFSGSKSGTSASLAITGLQAEDEADYYCQSYDTGLTSSDVIFGGGTKLTVL
B12: 7B5 scFv (scFv)
chain: QVQLVQSGAEVKKPGASVKVSCKVSGYTLNDFAMHWVRQAPGKGLEWMGGYVPEDGDTIYAQKFQGRVTMTEDTSTDTAYMELSSLRSEDTAVYYCATDPLYSGSLSYWGQGTTVTVSSSYVLTQPPSVSVAPGQTARITCGGNNIESKSVHWYQQKPGQAPVLVVYDDSDRPSGIPERFSGSNSGNTATLTISRVEAGDEADYYCQVWDSGPVWWIFGGGTKLTVL
B13: E7 scFv (scFv)
chain: QVQLVQSGAEVKKPGSSVKVSCKISGGISDNYALSWVRQAPGQGLEWMGAVIPLVETTSYAQRFQGRLTITADDSLNTLYMELGSLRSDDTAMYYCAREQVAVGPGPTSNRGPDGLDVWGRGTMVTVSSQSVLTQPPSVSGAPGQRVTISCTGSSSNIGDGYDVHWYQQLPGTAPKLLIYGNSNRPSGVPDRFSGSTSGTSASLAIRGLQSEDEADYYCGTWDDILNGWVFGGGTKLTVL
B14: E6 antibody, IgG1 format (antibody, V domains shown)
VH: QVQLVQSGAEVEKPGASVKVSCRVSGYPLTEIAIHWVRQAPGKGLEWMGSFEPEDAEAIYAQRFQGRVTMTEETSANTAYMELSSLRSEDTAVYFCATDPYYASSGSNYMEVWGRGTLVTVSS
VL: NFMLTQPHSVSESPGKTVTISCTGSGGSISSNYVQWYRQRPGSAPSTVIYEDDQRPSGVPDRISGSIDSSSNSASLTISGLTTEDEADYYCHSYDGNNRWVFGGGTKLTVL
B15: BG11 antibody, IgG1 format (antibody, V domains shown)
VH: QVQLVQSGAEVKKPGASVKVSCKVSGYTLTELSMHWVRQAPGKGLEWMGGFDPEDGETIYAQKFQGRVTMTEDTSTDTAYMELSSLRSEDTAVYYCATYSGSSGWWAFDIWGQGTMVTVSS
VL: SSELTQDPAVSVALGQTVRITCQGDSLRSYYASWYQQKPGQAPVLVIYGKNNRPSGIPDRFSGSSSGNTASLTITGAQAEDEADYYCQTWGTGIWVFGGGTKLTVL
B16: E10 antibody, IgG1 format (antibody, V domains shown)
VH: QVQLVESGGGVVQPGRSLRLSCAASGFTFSSYAMHWVRQAPGKGLEWVAVISYDGSNKYYADSVKGRFSISRDNSKNTLYLQMNSLRAEDTAVYYCARETFPHYYYYYMDVWGKGTMVTVSS
VL: SYVLTQPPSVSVAPGQTARISCGGGNFDDEGVHWYQQTPGQAPVLVVYDDTGRPSGIPERFSGSSSGNTATLTISRVEAGDEADYYCQAWDSSNDHPVFGGGTQLTVL
B17: G2 antibody, IgG1 format (antibody, V domains shown)
VH: QVQLVQSGAEVKKPGASVKVSCRASGYALTELSIHWVRQAPGKGLEWMGGFDPEDGETIYAQNFQGRVIMTEDTSTDTAYMELSSLKSEDTAVYYCATDLTGSRDSWGQGTLVTVSS
VL: QSVLTQPASVSGSPGQSITISCTGSRSDIGYYNYVSWYQQHPGKVPKLIIYDVTERPSGVSDRFSGSKSANTASLTISGLQAEDEADYYCSSFSSGDTFVVFGGGTKLTVL
B18: 2D1 antibody, IgG1 format (antibody, V domains shown)
VH: QVQLVQSGAEVKKPGASVKVSCKVSGYTLNDFAMHWVRQAPGKGLEWMGGYVPEDGDTIYAQKFQGRVTMTEDTSTDTAYMELSSLRSEDTAVYYCATDPLYSGSLSYWGQGTTVTVSS
VL: SYVLTQPPSVSVAPGQTARITCGGNNIESKSVHWYQQKPGQAPVLVVYDDSDRPSGIPERFSGSNSGNTATLTISRVEAGDEADYYCQVWDSNTDHWVFGGGTKVTVL
B19: 7B5 antibody, IgG1 format (antibody, V domains shown)
VH: B18 VH
VL: B18 VL with N93G, T94P, D95V, H96W, V98I, V105L
B20: 6A8 antibody, IgG1 format (antibody, V domains shown)
VH: B18 VH with S103P, G104P, S105G, S107Q, Y108P
VL: B18 VL
B21: 3E7 antibody, IgG1 format (antibody, V domains shown)
VH: B18 VH with S103P, G104P, S105G, Y108P
VL: B18 VL
B22: 4D8 antibody, IgG1 format (antibody, V domains shown)
VH: B18 VH with S103T, G104P, S105G, S107Y, Y108V
VL: B18 VL
B23: 5E1 antibody, IgG1 format (antibody, V domains shown)
VH: B18 VH with P100Y, S103I, G104P
VL: B18 VL
B24: A5 antibody, IgG1 format (antibody, V domains shown)
VH: QVQLVQSGAEVKKPGASVKVSCKVSGYALSELSIHWVRQAPGKGLEWMSYIDPEDGEPIYAQKFQGRATMTEDSSTDTAYMEMGSLTSDDTAVYYCAGVTGSTSDAFDLWGRGTLVTVSS
VL: SYVLTQDPSVSVAPGQTARITCGGANLWGLGVHWYQQKSGQAPVLVVSDNSDRASGIPERFSGSNSGTTATLTLSRVEVGDEADYYCQVWDSSSDHWVFGGRTKLTVL
B25: C10 antibody, IgG1 format (antibody, V domains shown)
VH: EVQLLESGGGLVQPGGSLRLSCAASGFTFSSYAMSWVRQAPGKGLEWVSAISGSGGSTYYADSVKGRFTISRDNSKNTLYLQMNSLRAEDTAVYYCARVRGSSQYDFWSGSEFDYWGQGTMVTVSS
VL: SYVLTQPPSVSVAPGKTASISCGGDNIGGQNVHWYQQKPGQAPVLVIYYDTDRPSGIPERFSGSNSGNTATLSISRVEAADEADYYCQVWDVDSDHPWVFGGGTKLTVL

These binders were tested against T1, recombinant human RANTES (huRANTES, …) (assay: cell-based or functional assay).

Row | Binder | Chemotaxis IC50 (nM); L1.2 cells expressing hCCR5, 1 nM huRANTES; scFv format [nM]
1 | B1 | 0.82
2 | B2 | 0.94
3 | B3 | 0.08
4 | B4 | 1.25
5 | B5 | 0.47
6 | B6 | 0.2
7 | B7 | 72
8 | B8 | 90
9 | B9 | 22
10 | B10 | 3.6
11 | B11 | 4.3
12 | B12 | 1.6
13 | B13 | 3.8

Target: T1, recombinant human RANTES (huRANTES, …)
Test: cell-based or functional assay
Remark: another data set of the same source

Row | Binder | Calcium Flux IC50 (nM), 10 nM rhuRANTES; L1.2-hCCR5 cells; IgG1 format [nM] | Chemotaxis IC50 (nM), 1 nM huRANTES; L1.2-hCCR5 cells; IgG1 format [nM] | Chemotaxis IC50 (nM), 0.2 nM huRANTES; L1.2-hCCR5 cells; IgG1 format [nM]
14 | B14 | 12.7 | 14 | –
15 | B15 | 7.7 | 29 | –
16 | B16 | – | 16 | –
17 | B17 | – | 18.4 | –
18 | B18 | – | 1.7 | 1.3
19 | B19 | – | 1.1 | 0.31
20 | B20 | – | 0.74 | 0.31
21 | B21 | – | 0.68 | 0.25
22 | B22 | – | 1.16 | 0.22
23 | B23 | – | 0.82 | 0.25
24 | B24 | – | 13.2 | –
25 | B25 | – | 17 | –
